In patent publication US20150218251A1 (NATIONAL CHENG KUNG UNIVERSITY, published 2015):
Numbering of substitutions follows the chain as printed. Read-outs that look alike come from different tables or passages of the source.

Tests used:
integrin α5β1 [1] = molecular target: T1, integrin α5β1 (UniProt P08648 42-1049; P05556 21-798); assay: cell-based or functional assay
integrin αvβ3 [2] = molecular target: T2, integrin αvβ3 (UniProt P06756 31-1048; P05106 27-788); assay: cell-based or functional assay
integrin αIIbβ3 [3] = molecular target: T3, integrin αIIbβ3 (UniProt P08514 32-1039; P05106 27-788); assay: cell-based or functional assay
integrin αvβ3 [4] = molecular target: T2, integrin αvβ3; assay: cell adhesion inhibition assay (Table 5)
integrin αIIbβ3 [5] = molecular target: T3, integrin αIIbβ3; assay: cell adhesion inhibition assay (Table 5)
integrin α5β1 [6] = molecular target: T1, integrin α5β1; assay: cell-based or functional assay; remark: listed apart in the source
integrin αvβ3 [7] = molecular target: T2, integrin αvβ3; assay: cell-based or functional assay; remark: listed apart in the source
integrin αIIbβ3 [8] = molecular target: T3, integrin αIIbβ3; assay: cell-based or functional assay; remark: listed apart in the source
integrin αIIbβ3 [9] = molecular target: T3, integrin αIIbβ3; assay: cell adhesion inhibition assay (Table 4)
integrin αvβ3 [10] = molecular target: T2, integrin αvβ3; assay: cell adhesion inhibition assay (Table 4)

T2 sequence (P06756 31-1048, chain 1 of 2): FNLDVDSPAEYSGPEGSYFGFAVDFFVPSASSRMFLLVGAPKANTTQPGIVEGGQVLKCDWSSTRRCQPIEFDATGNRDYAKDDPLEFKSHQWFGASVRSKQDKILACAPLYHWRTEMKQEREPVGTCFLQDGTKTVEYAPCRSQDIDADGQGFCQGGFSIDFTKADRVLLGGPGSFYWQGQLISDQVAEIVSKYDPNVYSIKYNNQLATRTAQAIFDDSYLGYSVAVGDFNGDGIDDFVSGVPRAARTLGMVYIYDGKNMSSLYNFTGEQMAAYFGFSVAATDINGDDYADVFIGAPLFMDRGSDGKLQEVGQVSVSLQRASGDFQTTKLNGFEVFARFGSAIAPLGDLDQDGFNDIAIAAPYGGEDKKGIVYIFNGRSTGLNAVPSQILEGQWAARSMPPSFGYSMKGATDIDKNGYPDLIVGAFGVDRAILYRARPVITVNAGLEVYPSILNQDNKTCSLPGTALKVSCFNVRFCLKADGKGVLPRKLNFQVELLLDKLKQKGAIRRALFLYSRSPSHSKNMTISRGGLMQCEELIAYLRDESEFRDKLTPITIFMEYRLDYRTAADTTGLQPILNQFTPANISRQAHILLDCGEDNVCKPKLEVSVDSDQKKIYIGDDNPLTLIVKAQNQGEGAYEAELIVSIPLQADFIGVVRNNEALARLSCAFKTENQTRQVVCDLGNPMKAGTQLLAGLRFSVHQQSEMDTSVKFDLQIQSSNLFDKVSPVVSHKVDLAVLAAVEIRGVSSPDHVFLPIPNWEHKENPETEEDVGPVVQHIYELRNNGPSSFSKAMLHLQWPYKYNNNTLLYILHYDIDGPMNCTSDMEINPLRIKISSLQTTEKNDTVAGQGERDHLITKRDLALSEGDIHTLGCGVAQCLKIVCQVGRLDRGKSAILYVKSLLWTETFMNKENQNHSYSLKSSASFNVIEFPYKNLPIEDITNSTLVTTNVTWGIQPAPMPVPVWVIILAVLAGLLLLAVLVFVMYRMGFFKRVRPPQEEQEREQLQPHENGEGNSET
T2 sequence (P05106 27-788, chain 2 of 2): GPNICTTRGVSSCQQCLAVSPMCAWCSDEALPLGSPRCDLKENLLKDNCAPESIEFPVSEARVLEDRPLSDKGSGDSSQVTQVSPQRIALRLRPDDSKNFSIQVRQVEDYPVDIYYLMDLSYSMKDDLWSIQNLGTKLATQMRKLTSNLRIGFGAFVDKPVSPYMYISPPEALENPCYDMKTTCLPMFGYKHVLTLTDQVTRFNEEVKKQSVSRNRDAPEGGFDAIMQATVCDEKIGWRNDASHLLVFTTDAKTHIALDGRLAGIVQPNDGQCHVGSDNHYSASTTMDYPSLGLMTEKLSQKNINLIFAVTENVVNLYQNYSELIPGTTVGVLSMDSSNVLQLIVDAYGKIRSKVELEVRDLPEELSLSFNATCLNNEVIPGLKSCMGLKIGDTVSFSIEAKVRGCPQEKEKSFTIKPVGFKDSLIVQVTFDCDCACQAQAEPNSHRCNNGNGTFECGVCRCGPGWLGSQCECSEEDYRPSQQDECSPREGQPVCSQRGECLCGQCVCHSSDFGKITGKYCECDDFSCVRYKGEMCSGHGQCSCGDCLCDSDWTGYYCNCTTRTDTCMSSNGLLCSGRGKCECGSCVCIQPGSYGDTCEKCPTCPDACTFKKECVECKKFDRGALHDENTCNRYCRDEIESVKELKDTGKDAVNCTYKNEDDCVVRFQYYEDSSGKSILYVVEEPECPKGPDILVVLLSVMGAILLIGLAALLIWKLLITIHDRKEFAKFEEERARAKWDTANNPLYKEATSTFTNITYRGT
T3 sequence (P08514 32-1039, chain 1 of 2): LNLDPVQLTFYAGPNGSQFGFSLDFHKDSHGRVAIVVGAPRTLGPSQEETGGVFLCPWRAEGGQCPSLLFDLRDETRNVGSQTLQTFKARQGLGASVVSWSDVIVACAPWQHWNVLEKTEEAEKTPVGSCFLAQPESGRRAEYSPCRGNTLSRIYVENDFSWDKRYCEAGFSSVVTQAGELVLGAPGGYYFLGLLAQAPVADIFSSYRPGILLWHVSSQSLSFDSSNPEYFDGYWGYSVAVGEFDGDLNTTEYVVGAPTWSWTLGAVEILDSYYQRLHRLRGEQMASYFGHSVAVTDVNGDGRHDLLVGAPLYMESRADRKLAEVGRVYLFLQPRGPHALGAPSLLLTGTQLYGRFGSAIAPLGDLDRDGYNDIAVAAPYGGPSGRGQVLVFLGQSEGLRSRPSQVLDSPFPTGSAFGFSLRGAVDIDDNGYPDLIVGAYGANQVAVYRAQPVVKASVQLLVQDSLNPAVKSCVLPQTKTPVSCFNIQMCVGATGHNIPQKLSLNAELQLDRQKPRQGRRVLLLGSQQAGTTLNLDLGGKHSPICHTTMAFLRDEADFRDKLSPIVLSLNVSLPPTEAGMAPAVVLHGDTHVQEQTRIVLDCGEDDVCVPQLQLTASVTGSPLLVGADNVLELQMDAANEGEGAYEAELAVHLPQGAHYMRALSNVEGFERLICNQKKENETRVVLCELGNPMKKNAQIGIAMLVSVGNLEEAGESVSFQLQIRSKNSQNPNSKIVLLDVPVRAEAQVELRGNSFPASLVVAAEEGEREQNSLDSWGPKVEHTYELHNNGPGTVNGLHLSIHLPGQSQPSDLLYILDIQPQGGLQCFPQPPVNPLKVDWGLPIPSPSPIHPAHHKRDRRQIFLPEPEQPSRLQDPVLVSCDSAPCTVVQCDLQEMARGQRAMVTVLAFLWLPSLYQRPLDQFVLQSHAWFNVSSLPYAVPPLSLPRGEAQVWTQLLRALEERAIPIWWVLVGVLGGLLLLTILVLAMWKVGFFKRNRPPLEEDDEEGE
T3 sequence (P05106 27-788, chain 2 of 2): as the sequence (P05106 27-788, chain 2 of 2) above
T1 sequence (P08648 42-1049, chain 1 of 2): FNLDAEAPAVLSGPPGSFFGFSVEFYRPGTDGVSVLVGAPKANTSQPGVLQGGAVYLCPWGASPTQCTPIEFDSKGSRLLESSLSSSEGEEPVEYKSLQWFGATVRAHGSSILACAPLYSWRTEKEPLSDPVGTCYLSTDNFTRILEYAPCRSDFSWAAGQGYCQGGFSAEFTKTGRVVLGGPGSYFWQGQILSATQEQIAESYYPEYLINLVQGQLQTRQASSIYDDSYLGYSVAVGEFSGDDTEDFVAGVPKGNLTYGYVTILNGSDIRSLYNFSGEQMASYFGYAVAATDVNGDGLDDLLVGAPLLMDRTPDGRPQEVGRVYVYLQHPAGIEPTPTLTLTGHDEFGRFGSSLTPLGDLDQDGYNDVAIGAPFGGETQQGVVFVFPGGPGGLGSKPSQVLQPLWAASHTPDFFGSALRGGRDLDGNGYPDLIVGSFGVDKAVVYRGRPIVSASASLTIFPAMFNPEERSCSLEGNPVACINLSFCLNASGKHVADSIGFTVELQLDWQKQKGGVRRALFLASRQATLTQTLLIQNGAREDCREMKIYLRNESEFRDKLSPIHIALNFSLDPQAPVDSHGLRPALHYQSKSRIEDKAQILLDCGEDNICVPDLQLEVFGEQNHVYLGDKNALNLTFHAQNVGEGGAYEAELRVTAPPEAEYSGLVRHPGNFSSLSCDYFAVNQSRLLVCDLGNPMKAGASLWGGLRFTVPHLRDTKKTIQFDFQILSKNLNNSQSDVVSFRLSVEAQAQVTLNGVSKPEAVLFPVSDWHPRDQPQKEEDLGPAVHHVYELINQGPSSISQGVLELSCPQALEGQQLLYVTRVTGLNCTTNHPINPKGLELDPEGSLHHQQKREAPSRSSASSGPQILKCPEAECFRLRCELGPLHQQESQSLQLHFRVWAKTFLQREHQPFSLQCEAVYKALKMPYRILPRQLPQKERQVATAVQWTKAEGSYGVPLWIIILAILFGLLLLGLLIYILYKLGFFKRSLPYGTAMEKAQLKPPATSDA
T1 sequence (P05556 21-798, chain 2 of 2): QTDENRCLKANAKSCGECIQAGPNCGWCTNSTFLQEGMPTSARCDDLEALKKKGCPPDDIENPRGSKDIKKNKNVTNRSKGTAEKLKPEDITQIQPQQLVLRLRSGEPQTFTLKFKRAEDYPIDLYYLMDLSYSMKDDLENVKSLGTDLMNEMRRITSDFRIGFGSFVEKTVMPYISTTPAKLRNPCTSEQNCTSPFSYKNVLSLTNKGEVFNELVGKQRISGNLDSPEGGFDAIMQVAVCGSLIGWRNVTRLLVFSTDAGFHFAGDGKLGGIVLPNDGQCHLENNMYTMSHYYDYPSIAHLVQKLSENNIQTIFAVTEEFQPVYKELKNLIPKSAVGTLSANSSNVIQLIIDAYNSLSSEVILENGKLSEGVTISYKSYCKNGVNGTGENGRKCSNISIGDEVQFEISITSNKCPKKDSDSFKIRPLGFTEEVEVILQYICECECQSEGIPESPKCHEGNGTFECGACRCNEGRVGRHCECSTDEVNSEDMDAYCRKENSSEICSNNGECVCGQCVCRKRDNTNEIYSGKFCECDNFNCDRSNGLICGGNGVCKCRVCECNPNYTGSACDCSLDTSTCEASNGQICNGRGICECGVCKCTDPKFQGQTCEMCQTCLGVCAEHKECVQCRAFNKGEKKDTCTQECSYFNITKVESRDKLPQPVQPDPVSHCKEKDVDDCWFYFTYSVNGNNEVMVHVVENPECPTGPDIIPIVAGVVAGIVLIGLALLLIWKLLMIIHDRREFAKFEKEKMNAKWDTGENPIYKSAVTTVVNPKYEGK

B1: Wild type FNIII 9-10 (SEQ ID NO: 4) (ligand)
chain: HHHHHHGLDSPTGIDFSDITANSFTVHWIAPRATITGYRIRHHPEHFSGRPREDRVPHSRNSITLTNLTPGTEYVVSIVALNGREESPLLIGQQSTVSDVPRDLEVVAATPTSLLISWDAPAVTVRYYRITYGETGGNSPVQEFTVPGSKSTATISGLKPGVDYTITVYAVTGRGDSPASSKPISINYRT
notes: exact N-terminus uncertain; also called Wild-type human FN III 9-10; Control
Question: For B1, which “IC50, cell adhesion assay” value (integrin α5β1 [1]) is on record?
Answer: 0.245 µM

Question: What about the “IC50, cell adhesion assay” value (integrin αvβ3 [2]) of the same binder?
Answer: > 3.12 µM

Question: What about the “percentage of inhibition, cell adhesion assay” value (integrin αvβ3 [2]) of the same binder?
Answer: 33.2%

Question: What about the “IC50, cell adhesion assay” value (integrin αIIbβ3 [3]) of the same binder?
Answer: > 4.8 µM

Question: And the “IC50, inhibition of ADP-induced platelet aggregation” value (from here on “IC50, inhibition”) (integrin αIIbβ3 [3])?
Answer: ~20 µM

Question: What about the “percentage of inhibition, cell adhesion assay” value (integrin αIIbβ3 [3]) of the same binder?
Answer: 0%

Question: Does B1 bind (integrin αvβ3 [4])?
Answer: no binding (tested: >3119 nM)

Question: Does B1 bind (integrin αIIbβ3 [5])?
Answer: no binding (tested: >4798 nM)

B2: Control FNIII 10 mutant (SEQ ID NO: 50, VTPRGDWNEGSK) (designed binder)
chain: HHHHHHVSDVPRDLEVVAATPTSLLISWDAPAVTVRYYRITYGETGGNSPVQEFTVPGSKSTATISGLKPGVDYTITVYAVTPRGDWNEGSKPISINYRT
notes: exact N-terminus uncertain; also called FNIII 10 variant
Question: How did the “IC50, cell adhesion assay” value (integrin α5β1 [6]) turn out when B2 was run?
Answer: > 4.51 µM

Question: And the “percentage of inhibition, cell adhesion assay” value (integrin α5β1 [6])?
Answer: 32.5%

Question: And the “IC50, cell adhesion assay” value (integrin αvβ3 [7])?
Answer: 0.908 µM

Question: What about the “IC50, cell adhesion assay” value (integrin αIIbβ3 [8]) of the same binder?
Answer: > 9.03 µM

Question: What about the “IC50, inhibition” value (integrin αIIbβ3 [8]) of the same binder?
Answer: > 6.45 µM

Question: What about the “percentage of inhibition, ADP-induced platelet aggregation” value (integrin αIIbβ3 [8]) of the same binder?
Answer: 14%

Question: And the “percentage of inhibition, cell adhesion assay” value (integrin αIIbβ3 [8])?
Answer: 0%

Question: Does B2 bind (integrin αIIbβ3 [9])?
Answer: no binding (tested: >9027 nM)

B3: Wild type FNIII 10 (SEQ ID NO: 2, …) (ligand)
chain: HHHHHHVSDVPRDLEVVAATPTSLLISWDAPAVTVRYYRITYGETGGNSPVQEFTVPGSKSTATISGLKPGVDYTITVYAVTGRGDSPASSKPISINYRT
notes: also called FNIII 10 wild type; human fibronectin type III domain module 10
Question: How did the “IC50, cell adhesion assay” value (integrin α5β1 [6]) turn out when B3 was run?
Answer: > 4.59 µM

Question: And the “percentage of inhibition, cell adhesion assay” value (integrin α5β1 [6])?
Answer: 39%

Question: And the “IC50, cell adhesion assay” value (integrin αvβ3 [7])?
Answer: 4.58 µM

Question: What about the “IC50, cell adhesion assay” value (integrin αIIbβ3 [8]) of the same binder?
Answer: > 9.18 µM

Question: And the “IC50, inhibition” value (integrin αIIbβ3 [8])?
Answer: ~45 µM

Question: And the “percentage of inhibition, cell adhesion assay” value (integrin αIIbβ3 [8])?
Answer: 0%

Question: Does B3 bind (integrin αIIbβ3 [9])?
Answer: no binding (tested: >9180 nM)

B4: FNIII 10 variant (SEQ ID NO: 48, VTPRGDMPDSSK) (designed binder)
chain: B2 chain with W87M, N88P, E89D, G90S
notes: also called FNIII 10 (PRGDMPD) protein; FNIII 10 PRGDMPD variant
Question: For B4, which “IC50, cell adhesion assay” value (integrin α5β1 [6]) is on record?
Answer: > 6.8 µM

Question: And the “percentage of inhibition, cell adhesion assay” value (integrin α5β1 [6])?
Answer: 31.7%

Question: And the “IC50, cell adhesion assay” value (integrin αvβ3 [7])?
Answer: 0.645 µM

Question: What about the “IC50, cell adhesion assay” value (integrin αIIbβ3 [8]) of the same binder?
Answer: > 9.07 µM

Question: And the “IC50, inhibition” value (integrin αIIbβ3 [8])?
Answer: > 22.2 µM

Question: And the “percentage of inhibition, ADP-induced platelet aggregation” value (integrin αIIbβ3 [8])?
Answer: 4%

Question: What about the “percentage of inhibition, cell adhesion assay” value (integrin αIIbβ3 [8]) of the same binder?
Answer: 0%

Question: Does B4 bind (integrin αIIbβ3 [9])?
Answer: no binding (tested: >9073 nM)

B5: FNIII 10 C-X7-C (SEQ ID NO: 10, VCARGDNPDCSK) (designed binder)
chain: B2 chain with T82C, P83A, W87N, N88P, E89D, G90C
Question: Which “IC50, cell adhesion assay” value (integrin α5β1 [6]) does the source give for B5 here?
Answer: > 4.55 µM

Question: And the “percentage of inhibition, cell adhesion assay” value (integrin α5β1 [6])?
Answer: 0%

Question: And the “IC50, cell adhesion assay” value (integrin αvβ3 [7])?
Answer: 0.432 µM

Question: What about the “IC50, cell adhesion assay” value (integrin αIIbβ3 [8]) of the same binder?
Answer: > 4.55 µM

Question: What about the “IC50, inhibition” value (integrin αIIbβ3 [8]) of the same binder?
Answer: > 25.5 µM

Question: And the “percentage of inhibition, ADP-induced platelet aggregation” value (integrin αIIbβ3 [8])?
Answer: 2%

Question: What about the “percentage of inhibition, cell adhesion assay” value (integrin αIIbβ3 [8]) of the same binder?
Answer: 0%

Question: Does B5 bind (integrin αIIbβ3 [9])?
Answer: no binding (tested: >4546 nM)

B6: FNIII 10 C-X7-C (SEQ ID NO: 6, VCPRGDMPDCSK) (designed binder)
chain: B2 chain with T82C, W87M, N88P, E89D, G90C
Question: B6 was tested. Which “IC50, cell adhesion assay” value (integrin α5β1 [6]) did it give?
Answer: > 73.2 µM

Question: What about the “percentage of inhibition, cell adhesion assay” value (integrin α5β1 [6]) of the same binder?
Answer: 42%

Question: And the “IC50, cell adhesion assay” value (integrin αvβ3 [7])?
Answer: 0.093 µM

Question: And the “IC50, cell adhesion assay” value (integrin αIIbβ3 [8])?
Answer: > 62.1 µM

Question: What about the “IC50, inhibition” value (integrin αIIbβ3 [8]) of the same binder?
Answer: ~62 µM

Question: And the “percentage of inhibition, cell adhesion assay” value (integrin αIIbβ3 [8])?
Answer: 19%

Question: What about the “fold increase of binding affinity against SEQ ID NO:48” value (integrin αvβ3 [10]) of the same binder?
Answer: 7 fold

Question: Does B6 bind (integrin αIIbβ3 [9])?
Answer: no binding (tested: >62124 nM)

B7: FNIII 10 C-X7-C (SEQ ID NO: 8, VCPRGDWNECSK) (designed binder)
chain: B2 chain with T82C, G90C
notes: Engineered intradomain disulfide bond Cys1491-Cys1499; exact N-terminus uncertain
Question: B7 was tested. Which “IC50, cell adhesion assay” value (integrin α5β1 [6]) did it give?
Answer: > 4.49 µM

Question: What about the “percentage of inhibition, cell adhesion assay” value (integrin α5β1 [6]) of the same binder?
Answer: 48%

Question: And the “IC50, cell adhesion assay” value (integrin αvβ3 [7])?
Answer: 0.418 µM

Question: And the “IC50, cell adhesion assay” value (integrin αIIbβ3 [8])?
Answer: > 4.49 µM

Question: And the “IC50, inhibition” value (integrin αIIbβ3 [8])?
Answer: ~10 µM

Question: And the “percentage of inhibition, cell adhesion assay” value (integrin αIIbβ3 [8])?
Answer: 0%

Question: Does B7 bind (integrin αIIbβ3 [9])?
Answer: no binding (tested: >4494 nM)
